B1: ZNF263 (parent)
chain: FAHSSNLLRHQRIHTGERPYKCPE
B2: SPATS1 (parent)
chain: YPEQSKGFHKAGSMLPPVNFSIVP

Variants of: B1
Experiment: protein stability index of a GFP-peptide fusion (GPS, HEK-293T) (PSI 1-6); higher = more stable
Details: c terminus: a fixed tail appended
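Also: lentivirally expressed fusions sorted by FACS into six bins by GFP to DsRed ratio, PSI derived from sequencing read proportions per bin multiplied by bin number.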

Protein stability index, by site and new letter:
R12: V 2.73, Y 2.1, D 3.3, W 1.87, F 2.17, M 2.52, L 2.44, P 2.38, G 2.72, Q 3.09, C 2.54, S 2.8, H 3.01, N 2.84, K 2.56, I 2.33, E 2.95, A 2.91, T 2.48
L7: R 2.58, A 2.83, Q 3.21, D 2.75, C 2.08, Y 1.6, W 2.48, S 2.52, K 2.54, F 1.84, M 2.39, I 2.2, G 2.43, T 2.45, E 3.14, H 2.94, N 2.93, V 2.68, P 2.02
S4: H 1.91, Y 2.45, Q 2.06, N 2.7, R 2.07, L 2.48, W 2.62, D 2.94, T 2.13, V 2.24, P 2.62, C 2.11, A 2.15, K 2.28, G 2.45, M 1.86, I 2.09, E 3.05, F 2.55
I13: Y 2.43, N 2.99, Q 2.83, V 2.13, T 2.82, S 2.68, H 2.77, W 1.99, C 2.46, R 2.39, D 3.09, A 2.85, M 2.12, L 2.07, K 2.68, P 3.22, F 2.14, G 2.91, E 3.23
H10: V 1.79, G 2.44, K 1.73, S 1.95, E 2.77, L 1.94, R 1.8, Q 2.37, Y 2.51, A 2.38, W 1.8, F 1.69, P 2.82, M 1.91, N 2.38, I 1.81, C 2.76, T 2.2, D 3.13
L8: S 3.14, R 2.53, F 1.8, G 2.35, D 3.05, C 2.13, E 3.3, I 2.71, Y 2.78, W 2.64, P 2.78, K 2.46, M 2.68, T 3.04, Q 2.97, N 2.8, H 2.01, V 2.55, A 2.37
G16: C 2.36, A 2.37, Q 2.01, D 2.77, H 2.02, I 2.22, K 2.23, P 2.37, E 2.67, L 2.07, M 1.88, N 2.43, R 1.57, F 1.37
H3: N 2.48, D 1.94, Y 1.96, P 2.5, L 2.61, F 1.89, E 1.98, W 1.25, R 2.04, I 2.34, T 2.06, K 1.86, Q 2.03, S 2.22, G 2.12, M 2.41, A 2.15, V 1.86, C 2.07
H14: N 2.71, Y 1.9, T 1.91, E 2.73, P 3.05, G 2.59, C 3.21, Q 2.98, F 2.16, S 2.46, R 2.18, D 2.81, I 2.57, M 3, V 2.34, L 2.57, A 2.99, W 3.6, K 2.08
N6: W 3.04, Y 1.63, I 1.56, V 1.91, M 2.15, F 1.73, P 1.98, H 2, C 1.4, R 1.99, S 2.27, A 1.77, E 2.62, K 2.17, G 2.21, T 2.3, L 1.58, Q 2.49, D 2.41
T15: N 2.36, C 1.95, E 2.24, K 1.99, G 2.19, L 2.36, W 1.6, Y 2.23, I 2.29, V 2.68, A 1.97, R 2.5, D 2.56, Q 2.19, S 2.65, F 2.58, P 1.87, H 2.12, M 2.36
A2: G 3.17, V 3.61, K 3.08, E 3.69, F 2.17, P 2.67, Q 2.73, M 2.83, Y 2.55, S 3.19, N 3.34, R 2.82, I 1.89, T 2.43, D 3.41, L 2.57, C 2.62, W 2.18, H 1.82
F1: H 4.22, C 2.36, Q 4.13, A 3.8, R 3.46, Y 2.51, I 3.77, L 2.67, K 3.54, P 3.95, W 3.29, S 3.34, V 3.01, N 3.9, D 3.9, E 3.92, T 3.67, M 3.9, G 4.33
Q11: R 2.2, L 1.69, C 3.7, N 3.13, M 1.84, E 2.56, Y 2.49, T 2.28, V 2.14, I 1.31, H 2.5, A 1.61, G 2.18, S 1.98, K 2.03, F 1.48, D 2.98, P 1.79
S5: M 2.28, L 1.96, V 2.12, D 2.87, N 2.3, K 1.91, Y 2.13, G 1.74, W 2.24, A 2.04, R 2.44, Q 2.15, E 2.75, C 2.02, F 1.94, P 2.25, T 2.7, I 2.31, H 1.81
R9: A 2.39, V 2.58, M 3.05, F 2.06, E 3.23, Q 2.87, L 2.88, N 2.85, H 2.85, S 2.63, I 2.21, C 2.68, G 2.45, T 2.9, P 3.19, K 2.93, D 2.62, Y 2.36

Variants of: B2
Experiment: as above
Details: c terminus: a fixed tail appended

Protein stability index: each site, then its substitutions
V23: K 2.1, T 1.74, N 2.35, G 1.98, L 1.94, R 1.9, C 1.8, A 2.57, E 2.42, Y 1.75, M 1.93, D 1.88, F 1.59, S 1.97, Q 2.26, W 1.87, H 1.43, I 2.47
P24: G 2.37, R 1.82, M 2.5, T 3.33, D 2.43, W 3.28, E 2.74, S 1.94, C 1.65, V 1.46, Q 1.75, N 1.84, A 1.66, K 2.08, Y 2.08, L 3.85, H 1.53, I 3.47, F 1.83
